We go through 30 sequences from the nanobody polyreactivity screen of Harvey et al. (2022).

The nature of the data set: yeast display, Sf9 membrane polyspecificity reagent, FACS + sequencing; frameworks hold sequencing errors. In outline: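 Galactose induction of a Saccharomyces cerevisiae BJ5465 synthetic nanobody display library ran 36–48 hours. The cells were then stained for 1 hour at 4 °C with 10% biotinylated, detergent-solubilized Sf9 membrane reagent, pulled down on streptavidin microbeads and FACS-sorted into low and high (top ~1%) gates on expression and reagent-binding fluorescence. Labels for polyreactivity follow the gate of origin.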
As for “QVQLVESGGGLVQAGGSLRLSCAASGSIFSGNTMGWYRQAPGKERELVAAISKSGGSTYYADSVKGRFTISRDNAKNTVYLQINSLKPEDTAVYYCAVRIRSRVANPGYRWGFNYWGQGTQVTVSS”, the “polyreactivity (PSR sort gate)” value was “high polyreactivity”.

For the sequence “QVQLVESGGGLVQAGGSLRLSCAASGSIFSGNVMGWYRQAPGKERELVAAISGRGGSTYYADSVKGRFTISRDNAKNTVYLQMNSLKPEDTAVYYCAAVYLKTYYWGQGTQVTVSS”, the “polyreactivity (PSR sort gate)” value is “high polyreactivity”.

In the case of “QVQLVESGGGLVQAGGSLRLSCAASGSIFSGYAMGWYRQAPGKESDLVAAISGSGGSTFYADSVKGRFTISRDYAKNTVYLQMNSLKPEDTAVYFCAARRIAPYGRYDYWGQGTQVTVSS”, the “polyreactivity (PSR sort gate)” value is listed as “low polyreactivity”.

For “QVQLVESGGGLVQAGGSLRLSCAASGSIFSGYTMGWYRQAPGKERELVAAISSDGSTTYADSVKGRFTISRDNAKNTVYLQMNSLNPEDTADYYCAAYPYWEGSYGGYDYWGQGTEVTVSS”, the “polyreactivity (PSR sort gate)” value is reported as “low polyreactivity”.

Consider “QVQLVESGGGLVQAGGSLRLSCAASGSIFSINAMGWYRQAPGKERELVAAISASGGSTYYADSVKGRFTISRDNAKNTVYLQMNSLKPEDTAVYYCAAEGSPTGYDYWGQGTQVTVSS”, for which the “polyreactivity (PSR sort gate)” value is given as “low polyreactivity”.

In the case of “QVQLVESGGGLVQAGGSLRLSCAASGSIFSINTMGWYRQAPGKERELVATITWSVGSTNYADSVKGRFTISRDNAKNTVYLQMNSLKPEDTAVYYCNADSSRWPYRLYRFYYWGQGTQVTVSS”, the “polyreactivity (PSR sort gate)” value is reported as “low polyreactivity”.

Regarding “QVQLVESGGGLVQAGGSLRLSCAASGSIFSINTMGWYRQPPGKERELVAAITRSGSGTYYADSVKGRFTISRDNAKNTVYLQMNSLKPEDTAVYYCAKPAGARLGYWGQGTQVTVSS”, the “polyreactivity (PSR sort gate)” value is reported as “low polyreactivity”.

In the case of “QVQLVESGGGLVQAGGSLRLSCAASGSIFSIYAMEWYRQAPGKERELVAAITWGGGSTYYADSVKGRFTISRDNAKNTVYLQMNSLKPEDTAVYYCAADSLTWYGTYYYWGQGTQVTVSS”, the “polyreactivity (PSR sort gate)” value is listed as “high polyreactivity”.

For the sequence “QVQLVESGGGLVQAGGSLRLSCAASGSIFSIYAMGWYRQAPGKERELVAAINWIGTSTYYADSVKGRFTISRDNAKNTVYLQMNSLKPEDTAVYYCAAVSRRVSPYLSARDYCGQGTQVTVSS”, the “polyreactivity (PSR sort gate)” value is “high polyreactivity”.

For the sequence “QVQLVESGGGLVQAGGSLRLSCAASGSIFSIYAMGWYRQAPGKERELVAAISSGGSTYADSVKGRFTISRDNAKNTVYLQMNSLKPEDTAVYYCAADRRGYRGYDYWGQGTQVTVSS”, the “polyreactivity (PSR sort gate)” value is “low polyreactivity”.

Consider “QVQLVESGGGLVQAGGSLRLSCAASGSIFSIYAMGWYRQAPWKERELVAAITWGGGSTYYADSVKGRFTISRDNAKNTVYVQMNSLKPEDTAVYYCAADSLTWYGTYYYWGQGTQVTVSS”, for which the “polyreactivity (PSR sort gate)” value is recorded as “high polyreactivity”.

Turning to “QVQLVESGGGLVQAGGSLRLSCAASGSIFSKYTMGWSRQAPGKEWELVAVISDSGASTYYADSVKGRFTISRDNAKNTVYLEMNSLKPEDTAVYYCAAVYRGALTLYYWGQGTQVTVSS”, the “polyreactivity (PSR sort gate)” value is recorded as “high polyreactivity”.

Regarding “QVQLVESGGGLVQAGGSLRLSCAASGSIFSKYVMGWYRQAPGKERELVAAISWSGTRTYYADSVKGRFTISRDNAKNTVYLQMNSLKPEDTAVDYCAARRLYAGHQYDYWGQGTQVTVSS”, the “polyreactivity (PSR sort gate)” value was “high polyreactivity”.

As to “QVQLVESGGGLVQAGGSLRLSCAASGSIFSLYAMGWYRQAPGKEWELVAAISRGGSTNYADSVKGRFTISRDNAKNTVYLQMNSLKPEDTAVYYCNAGFGVRRKHITFYTWYDYWGQGTQVTVSS”, the “polyreactivity (PSR sort gate)” value is “low polyreactivity”.

Consider “QVQLVESGGGLVQAGGSLRLSCAASGSIFSNNAMGWYRQAPGKERELVAAITRSGGNTYYADSVKGRFTISRDNAKNTVYLQMNSLKPEDTAVYYCNAVHLRKMYYWGQGTQVTVSS”, for which the “polyreactivity (PSR sort gate)” value is on record as “high polyreactivity”.

Regarding “QVQLVESGGGLVQAGGSLRLSCAASGSIFSPNAMGWYRQAPGKERELVAGISWSGDGTYYADSVKGRFTISRDNAKNTVYLQMNSLKPEDTAVYYCAARFGRYSHRYYYWGQGTQVTVSS”, the “polyreactivity (PSR sort gate)” value is given as “high polyreactivity”.

With “QVQLVESGGGLVQAGGSLRLSCAASGSIFSPNDMGWYRQAPGKERELVAAITSAGSTYYADSVKGRFTISRDNAKNTVYLQMNSLKPEDTAVYYCAATYISVTDYAYFPLWYGYWGQGTQVTVSS”, the “polyreactivity (PSR sort gate)” value is listed as “low polyreactivity”.

For “QVQLVESGGGLVQAGGSLRLSCAASGSIFSPYAMGWYRQAPGKERELVAAISRSGRTHYADSVKGRFTISRDNAKNTVYLQMNSLKPEDTAVYYCAAGVVYGYYYWGQGTQVTVSS”, the “polyreactivity (PSR sort gate)” value was “high polyreactivity”.

On to “QVQLVESGGGLVQAGGSLRLSCAASGSIFSPYDMGWYRQAPGKERELVASITWRRGNTYYADSVKGRFTISRDNAKNTVYLQMNSLKPEDTAVYYCAATRGAQTPQTRKKRGFDYWGQGTQVTVSS”, for which the “polyreactivity (PSR sort gate)” value is “low polyreactivity”.

As for “QVQLVESGGGLVQAGGSLRLSCAASGSIFSPYTMGWYRQAPGKEREFVAAIRWTTGSTYYADSVKGRFTISRDNAKNTVYLQMNSLKPEDTAVYYCAADPSYRSRLFRSYEYDYWGQGTQVTVSS”, the “polyreactivity (PSR sort gate)” value is on record as “high polyreactivity”.

In the case of “QVQLVESGGGLVQAGGSLRLSCAASGSIFSRNAMGWYRQAPGKEREFVARISWSSTSTNYADSVKGRFTISRDNAKNTVYLQMISLKPEVTAVDYCSADFRGDRRFDYWGQGTQVTVSS”, the “polyreactivity (PSR sort gate)” value is reported as “low polyreactivity”.

As to “QVQLVESGGGLVQAGGSLRLSCAASGSIFSRNAMGWYRQAPGKEREFVARISWSSTSTNYADSVKGRFTISRDNSKNTVFLLINSLKPEDTAVYYCAADFRGDRRFDYWGQGTQVTVSS”, the “polyreactivity (PSR sort gate)” value is reported as “low polyreactivity”.

For “QVQLVESGGGLVQAGGSLRLSCAASGSIFSRYAMGWYRQSPGKERELVAAISQRAGSTYYADSVKGRFTISRDNAKNTVYLQMNSLKPEDTAVYYCAARRRGRKERGEDYWGQGTQVTVSS”, the “polyreactivity (PSR sort gate)” value is “high polyreactivity”.

In the case of “QVQLVESGGGLVQAGGSLRLSCAASGSIFSSNAMGWYRQAPGKERELVAAIDYSGGRTYYADSVKGRFTISRDNAKNTVYLQMNSLKPEDTAVYYCAKLIPVHSRYDYWGQGTQVTVSS”, the “polyreactivity (PSR sort gate)” value was “low polyreactivity”.

On to “QVQLVESGGGLVQAGGSLRLSCAASGSIFSSNAMGWYRQAPGKERELVAAITGSDGSTYYADSVKGRFTISRDNAKNTVYLQMNSLKPEDTAVYYCAAVGRYYYFDGFYYWGQGTQVTVSS”, for which the “polyreactivity (PSR sort gate)” value was “low polyreactivity”.

With “QVQLVESGGGLVQAGGSLRLSCAASGSIFSSNTMGWYRQAPGKERELVAAITSGGTTYADSVKGRFTISRDNAKNTVYLQMNSLKPEDTAVYYCAARYYIHRGYDYDYWGQGTQVTVSS”, the “polyreactivity (PSR sort gate)” value is given as “high polyreactivity”.

As for “QVQLVESGGGLVQAGGSLRLSCAASGSIFSSYAMGWYRPAPGKERELVAAITRTGGRTYYADSVKGRFTISRDNAKNTVYLQMNSLKPEDTAVYYCAAKQVSRGVAAYDYWGQGTQVTVSS”, the “polyreactivity (PSR sort gate)” value is listed as “high polyreactivity”.

Turning to “QVQLVESGGGLVQAGGSLRLSCAASGSIFSSYAMGWYRQAPGKERELVAAITTRGDSTRYADSVKGRFTISRDNAKNTVYLQMNSLKPEHTAVYYCNARYRDPYWDSGYWGQGTQVTVSS”, the “polyreactivity (PSR sort gate)” value is recorded as “high polyreactivity”.

For “QVQLVESGGGLVQAGGSLRLSCAASGSIFSSYAMGWYRQAPGKERELVASISSGGSTNYADSVKGRFTISRDNAKNTVYLQMNSLKPEDTAVYYCNVDLYNWRGDSTGYDYWGQGTQVTVSS”, the “polyreactivity (PSR sort gate)” value was “low polyreactivity”.

Turning to “QVQLVESGGGLVQAGGSLRLSCAASGSIFSSYTMGWYRPAPGKERELLAAISSTGSTYYADSVKGRFTISRDNAKNTVYLQMNSLKPEDTAVYYCAARGWYWQQYKGHTRYDYWGQGTQVTVSS”, the “polyreactivity (PSR sort gate)” value is “high polyreactivity”.
